Measured values reported in patent EP4714976A1.

Experiments:
[1] = molecular target: extracellular domain of the FGFR2b protein (NP_075259.4) (UniProt P21802); experiment: phage ELISA
[2] = molecular target: recombinant mouse FGFR2b (mouse) (UniProt P21803); experiment: BLI, antibody on AHC2 sensor
Chain of recombinant mouse FGFR2b (mouse) (P21803 22-377): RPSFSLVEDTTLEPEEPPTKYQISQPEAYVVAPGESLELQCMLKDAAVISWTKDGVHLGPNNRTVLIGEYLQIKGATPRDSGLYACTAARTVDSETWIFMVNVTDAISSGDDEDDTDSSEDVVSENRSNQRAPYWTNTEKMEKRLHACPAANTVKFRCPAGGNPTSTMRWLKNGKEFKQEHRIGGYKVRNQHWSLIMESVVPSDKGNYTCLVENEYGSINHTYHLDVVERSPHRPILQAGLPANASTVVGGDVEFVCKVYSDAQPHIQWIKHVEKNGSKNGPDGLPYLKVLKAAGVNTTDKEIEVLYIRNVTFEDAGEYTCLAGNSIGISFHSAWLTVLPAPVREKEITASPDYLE

Chain of extracellular domain of the FGFR2b protein (NP_075259.4) (P21802 other isoform, or with tags, fused parts or gaps): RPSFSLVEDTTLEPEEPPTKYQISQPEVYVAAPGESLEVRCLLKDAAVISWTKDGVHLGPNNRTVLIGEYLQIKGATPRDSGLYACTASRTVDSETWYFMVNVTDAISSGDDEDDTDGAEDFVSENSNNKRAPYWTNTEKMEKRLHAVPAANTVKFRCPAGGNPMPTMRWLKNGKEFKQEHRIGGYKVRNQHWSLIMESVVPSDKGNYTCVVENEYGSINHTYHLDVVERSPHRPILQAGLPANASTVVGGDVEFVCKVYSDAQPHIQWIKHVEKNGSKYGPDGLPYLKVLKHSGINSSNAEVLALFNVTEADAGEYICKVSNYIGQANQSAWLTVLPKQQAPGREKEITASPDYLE

B1: 2B1 scFv displayed on phage (scFv)
scFv: EVQLQQSGAELVKPGASVKMSCKASGYTFASYNLHWVKQTPGQGLEWIGLIYPENGDTSYNQKFKGKATLTADKSSSTAYIQLSSLTSEDSAVYFCARGGFDYWGQGTSLTVSSGGGGSGGGGSGGGGSDIQMIQSPASLSVSVGETVTITCRASENIYSNLAWYQQKQGKSPQLLVYNAKTLADGVPSRFSGSGSGTQYSLKINSLQPEDFGSYYCQHFWSTPYTFGGGTKLEIK
- OD (450 nm) value [1]: 2.33

B2: 3D7 scFv displayed on phage (scFv)
scFv: QVQLQQSGAELVKPGASVKMSCKASGYTFSFYNMHWVKRTPGRGLEWIGLIYPDNGDTSYNQKFKGKATLTADTSSSTAYMQLSSLTSEDSAVYYCARGGLDYWGQGTSLTVSSGGGGSGGGGSGGGGSEIVLTQSPASLAVSLGQRATISCKASQSVDYDGDSYMNWYQQKPGQPPKLLIYGISNRFSGVPDRFSGSGSGTDFTLKISTIKPEDLGMYYCLQGTHQPYTFGGGTKLEIK
- OD (450 nm) value [1]: 2.2

B3: 3F11 scFv displayed on phage (scFv)
scFv: QVQLQQSGAELVKPGASVKMSCKASGYTFAPYNIHWVRQTPGQGLEWIGLIYPDNGDTSYNQKFKAKATLTADKSSSTAYMQLSSLTSEDSAVYYCARGGFDYWGQGTSLTVSSGGGGSGGGGSGGGGSDIVMTQSQKFMSTSVGDRVSVTCKASQNVGTNVAWYQQKPGQSPKALIYSASYRYSGVPDRFTGSGSGTDFTLTISNVQSEDLAEYFCQQHYSTPFTFGSGTKLEIK
- OD (450 nm) value [1]: 2

B4: 3E1 scFv displayed on phage (scFv)
scFv: QVQLQQPGAEVVKPGASVKMSCKASGYTFTDYYIHWVKQTPGQGLEWIGAIYPDNGDTSYNQKFKVKATLTADKSSSTAYMQLSSLTSEDSAVYYCARAFTYWGQGTLVTVSAGGGGSGGGGSGGGGSDILITQSPASLSASVGETVTITCGASENIYGALNWYQRKQGKSPQLLIYGATNLADGMSSRFSGSGSGRQYSLKISSLHPDDVATYYCQNVLSTPYTFGGGTKLEIK
- OD (450 nm) value [1]: 2.17

B5: 1G6 scFv displayed on phage (scFv)
scFv: EIQLQQSGAELVKPGASVKMSCKASGYTFRYYNMHWVKRTPGQGLEWIGLIYPDNGDTSYNQKFKGKATLTADTSSSTAYMQLSSLTSEDSAVYYCARGGLDYWGQGTSLTVSSGGGGSGGGGSGGGGSNIVMTQSHKFMSTSVGDRVSITCKASQDVNTDVAWYQQKPGQSPKLLIYSASYRYTGVPTRFTGSGSGTDFTFTISGVQAEDLADYYCQQHYNTPYTFGGGTKLELK
- OD (450 nm) value [1]: 2.44

B6: 3E2 scFv displayed on phage (scFv)
scFv: EIQLQQSGAELVKPGASVKMSCKASGYTFSFYNMHWVKRTPGQGLEWIGLIYPDNGDTSYNQKFKGKATLTADTSSSTAYMQLSSLTSEDSAVYYCARGGLDYWGQGTSLTVSSGGGGSGGGGSGGGGSNIVMTQSQKFMSTSVGDRVSVTCKASQNVGTNVAWYQQKPGQSPKALIYSASYRYTGVPDRFTGSGSGTDFTFTISSVQAEDLAVYYCQQHYSTPYTFGGGTKLEIK
- OD (450 nm) value [1]: 1.87

B7: 3A8 scFv-Fc (Fc fusion)
chain: QVQLQQSGAELVKPGASVKMSCKASGYTFTIYNIHWVRQTPGQGLEWIGLIYPDNGDTSYNQKFKAKATLTADKSSSTAYMQLSSLTSEDSAVYYCARGGFDYWGQGTSLTVSSGGGGSGGGGSGGGGSDIVMTQSQKFMSTSVGDRVSVTCKASQNVGTNVAWYQQKPGQSPKALIYSASYRYSGVPDRFTGSGSGTDFTLTISNVQAEDLADYFCQQHYSTPYTFGGGTKLEMKESKYGPPCPPCPAPEAAGGPSVFLFPPKPKDTLMISRTPEVTCVVVDVSQEDPEVQFNWYVDGVEVHNAKTKPREEQFNSTYRVVSVLTVLHQDWLNGKEYKCKVSNKGLPSSIEKTISKAKGQPREPQVYTLPPSQEEMTKNQVSLTCLVKGFYPSDIAVEWESNGQPENNYKTTPPVLDSDGSFFLYSKLTVDKSRWQEGNVFSCSVMHEALHNHYTQKSLSLSLG
- Kd [2]: 7.17 nM
- koff [2]: 0.000306 s⁻¹
- kon [2]: 42700 M⁻¹ s⁻¹
